Laboratory results as given in patent US20160137696A1 (Bristol-Myers Squibb, published 2016).
Starred links: 1 amine or outer side, 2 acyl side, 3 side chain; linkers in the order of their positions; H or OH if unused. Positions of bridges follow the written chain, without caps; N, C: chain ends. Non-standard residues stand in square brackets, D forms with d. Groups on a side chain read outwards from the residue. Primed or numbered codes have the meaning given here. No end group written: not given here. *: point of attachment. Pra′ = propargylglycine (built in as LPH), clicked to a 1-substituted triazol-4-yl-alanine, O=C([C@H](Cc1cn([*:3])nn1)N[*:1])[*:2]; X1 = (S)‑3‑carboxy‑3‑(15-carboxypentadecanoylamino)propyl, O=C(O)CCCCCCCCCCCCCCC(=O)N[C@@H](CC*)C(=O)O; Phe(4-OMe) = p-methoxyphenylalanine (O-methyl-L-tyrosine), COc1ccc(C[C@H](N[*:1])C(=O)[*:2])cc1; Pra″ = its azide, alkyne or alkene has reacted where a group follows in round brackets; Pra(4) = propargylglycine, clicked with an azide to give a triazolylalanine residue; X2 = (S)‑3‑carboxy‑3‑palmitamidopropyl, CCCCCCCCCCCCCCCC(=O)N[C@@H](CC*)C(=O)O; Pra(3) = propargylglycine, clicked to an azide to give a triazolyl-alanine; triazole = 1,2,3-triazole formed by click of the Pra alkyne with the azide; Trp(1-CH2CO) = O=C([C@H](Cc1cn(CC(=O)[*:3])c2ccccc12)N[*:1])[*:2]; Phe(3,4,5-F3) = N[C@@H](Cc1cc(F)c(F)c(F)c1)C(=O)O; C18 diacid = O=C(O)CCCCCCCCCCCCCCCCC(=O)*; C16 diacid = O=C(O)CCCCCCCCCCCCCCC(=O)*; γGlu = O=C(O)[C@H](CCC(=O)[*:2])N[*:1]; Aha = [N-]=[N+]=NCC[C@H](N)C(=O)O; Hyp = O=C(O)[C@@H]1C[C@@H](O)CN1; NMeF = CN[C@@H](Cc1ccccc1)C(=O)O; dHyp = O=C(O)[C@H]1C[C@H](O)CN1; NMeNle = CCCC[C@H](NC)C(=O)O; triazole″ = not defined here; Bzt = benzothienylalanine; Pip = O=C(O)[C@@H]1CCCCN1; NMeA = CN[C@@H](C)C(=O)O; Orn = NCCC[C@H](N)C(=O)O; PEG7′ = not defined here; Pra = C#CC[C@H](N)C(=O)O; Dab = NCC[C@H](N)C(=O)O; Dap = NC[C@H](N)C(=O)O

Molecular target: T1, Recombinant Human PD-L1-TVMV-His (human, UniProt Q9NZQ7 19-239)
T1 construct: expressed in HEK293T cells; also called PD-L1-His; hPD-L1(19-239)-TVMV-His
Assay: HTRF vs PD-1-Ig; B = IC50 0.01-0.099 µM
Procedure: (§1) Homogenous Time-Resolved Fluorescence (HTRF) Assays of Binding of Soluble PD-1 to Soluble PD-L1. Soluble PD-1 and soluble PD-L1 refers to proteins with carboxyl-end truncations that remove the transmembrane-spanning regions and are fused to heterologous sequences, specifically the Fc portion of the human immunoglobuling G sequence (Ig) or the hexahistidine epitope tag (His). All binding studies were performed in an HTRF assay buffer consisting of dPBS supplemented with 0.1% (w/v) bovine serum albumin and 0.05% (v/v) Tween-20. For the PD-1-Ig/PD-L1-His binding assay, inhibitors were pre-incubated with PD-L1-His (10 nM final) for 15 m in 4 μl of assay buffer, followed by addition of PD-1-Ig (20 nM final) in 1 μl of assay buffer and further incubation for 15 m. PD-L1 fusion proteins from either human, cynomologous macaques, mouse, or other species were used. HTRF detection was achieved using europium crypate-labeled anti-Ig monoclonal antibody (1 nM final) and allophycocyanin (APC) labeled anti-His monoclonal antibody (20 nM final). Antibodies were diluted in HTRF detection buffer and 5 μl was dispensed on top of binding reaction. The reaction was allowed to equilibrate for 30 minutes and signal (665 nm/620 nm ratio) was obtained using an EnVision fluorometer. Additional binding assays were established between PD-I-Ig/PD-L2-His (20 and 5 nM, respectively), CD80-His/PD-L1-Ig (100 and 10 nM, respectively) and CD80-His/CTLA4-Ig (10 and 5 nM, respectively). Binding/competition studies between biotinylated Compound No. 71 and human PD-L1-His were performed as follows. Macrocyclic peptide inhibitors were pre-incubated with PD-L1-His (10 nM final) for 60 minutes in 4 μl of assay buffer followed by addition of biotinylated Compound No. 71 (0.5 nM final) in 1 μl of assay buffer. Binding was allowed to equilibrate for 30 minutes followed by addition of europium crypated labeled Streptavidin (2.5 pM final) and APC-labeled anti-His (20 nM final) in 5 μl of HTRF buffer. The reaction was allowed to equilibrate for 30 m and signal (665 nm/620 nm ratio) was obtained using an EnVision fluorometer.

T1 sequence (Q9NZQ7 other isoform, or with tags, fused parts or gaps limits assumed): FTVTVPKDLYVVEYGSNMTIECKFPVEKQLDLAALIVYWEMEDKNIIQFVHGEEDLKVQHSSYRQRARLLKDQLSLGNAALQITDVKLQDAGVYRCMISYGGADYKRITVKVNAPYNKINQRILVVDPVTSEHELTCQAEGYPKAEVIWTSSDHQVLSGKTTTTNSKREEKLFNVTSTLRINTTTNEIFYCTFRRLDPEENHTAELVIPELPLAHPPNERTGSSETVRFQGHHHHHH

Row | Binder | IC50
1 | {CH2CO}-Y[NMeA]DPHQ[Hyp]WSW[NMeNle][NMeNle]ECG[Pra(3)]([triazole″-X2])G (thioether N-14; reading uncertain) [Example 14062] | 10 to 99 nM
2 | {CH2CO}-Y[NMeA]DPHK[Hyp]WKW[NMeNle][NMeNle]ECG[Pra(3)]([triazole″-2,5,8,11‑tetraoxatridecyl])G (thioether N-14; reading uncertain) [Example 14063] | 10 to 99 nM
3 | {CH2CO}-[Phe(3,4,5-F3)][NMeF][NMeNle][dHyp]DV[NMeF]D[dP]WYLCG[Pra′]([triazole-X1]) (thioether N-13) [Example 14074] | 10 to 99 nM
4 | {CH2CO}-Y[NMeA]DPHQ[Hyp]WSW[NMeNle][NMeNle]ECG[Pra′]([triazole-X1])G (thioether N-14) [Example 14069] | 10 to 99 nM
5 | {CH2CO}-Y[NMeA]NP[Dap]L[Hyp]W[Dab][Trp(1-CH2CO)][NMeNle][NMeNle]LCGGG[Pra″]([triazole-PEG7′-γGlu-C18 diacid]) (thioether N-14 (inferred)) [Example 13124] | 10 to 99 nM
6 | {CH2CO}-[Phe(3,4,5-F3)][NMeF][NMeNle][dP]DV[NMeF][Orn][dP]WYLCG[Pra′]([triazole-X1]) (thioether N-13) [Example 14073] | 10 to 99 nM
7 | {CH2CO}-Y[NMeA]DPHQ[Hyp]WSW[NMeNle][NMeNle]ECG[Pra′]([triazole-X1]) (thioether N-14) [Example 14068] | 10 to 99 nM

Now from value to binder:

Row | IC50 | Binder
8 | 10 to 99 nM | {CH2CO}-Y[NMeA]NP[Dap]L[Hyp]WS[Trp(1-CH2CO)][NMeNle][NMeNle]LCG[Pra′]([triazole-X2]) (thioether N-14) [Example 14080]
9 | 10 to 99 nM | {CH2CO}-Y[NMeA]NP[Dap]L[Hyp]WS[Trp(1-CH2CO)][NMeNle][NMeNle]LCG[Pra(4)]([triazole-Dab-C16 diacid]) (thioether N-14) [Example 14083]
10 | 10 to 99 nM | {CH2CO}-Y[NMeA]DPHK[Hyp]WK[Trp(1-CH2CO)][NMeNle][NMeNle]ECG[Pra′]([triazole-X1]) (thioether N-14) [Example 14075]
11 | 10 to 99 nM | {CH2CO}-Y[NMeA]DPHK[Hyp]WK[Trp(1-CH2CO)][NMeNle][NMeNle]ECG[Pra′]([triazole-X2]) (thioether N-14) [Example 14079]
12 | 10 to 99 nM | {CH2CO}-Y[NMeA]NP[Dap]L[Hyp]W[Dab][Trp(1-CH2CO)][NMeNle][NMeNle]LCGGG[Pra]-OH (thioether N-14; SMILES C#CC[C@H](NC(=O)CNC(=O)CNC(=O)CNC(=O)[C@@H]1CSCC(=O)N[C@@H](Cc2ccc(O)cc2)C(=O)N(C)[C@@H](C)C(=O)N[C@@H](CC(N)=O)C(=O)N2CCC[C@H]2C(=O)N[C@@H](CN)C(=O)N[C@@H](CC(C)C)C(=O)N2C[C@H](O)C[C@H]2C(=O)N[C@@H](Cc2c[nH]c3ccccc23)C(=O)N[C@@H](CCN)C(=O)N[C@@H](Cc2cn(CC(=O)O)c3ccccc23)C(=O)N(C)[C@@H](CCCC)C(=O)N(C)[C@@H](CCCC)C(=O)N[C@@H](CC(C)C)C(=O)N1)C(=O)O, also called Intermediate 130AB) [INT-130AB]

Molecular target: T1, Recombinant Human PD-L1-TVMV-His
Assay: HTRF vs PD-1-Ig; C = IC50 0.0003-0.0099 µM
Procedure: as §1

Row | Binder | IC50
13 | {CH2CO}-Y[Pip]NP[Dap]L[Hyp]W[Dab][Trp(1-CH2CO)][NMeNle][NMeNle]LCG[Dap]([γGlu-C18 diacid]) (thioether N-14 (inferred)) [Example 13152] | 0.3 to 9.9 nM
14 | {CH2CO}-Y[NMeA]NP[Dap]L[Hyp]WSW[NMeNle][NMeNle]RCG[Pra′]([triazole-X1]) (thioether N-14) [Example 14066] | 0.3 to 9.9 nM
15 | {CH2CO}-Y[NMeA]NP[Dap]L[Hyp]W[Dab][Trp(1-CH2CO)][NMeNle][NMeNle]LCG[Dap]([γGlu-C18 diacid]) (thioether N-14 (inferred)) [Example 13153] | 0.3 to 9.9 nM
16 | {CH2CO}-[Phe(4-OMe)][Pip]NPHQ[Hyp]W[Dab][Trp(1-CH2CO)][NMeNle][NMeNle]LCG[Dap]([γGlu-C18 diacid]) (thioether N-14) [Example 13154] | 0.3 to 9.9 nM

Continued, values first:

Row | IC50 | Binder
17 | 0.3 to 9.9 nM | FXDPXLPWXWXXLCGE (ClAc-Tyr(4-F)-Pip-Asp-Pro-Dap-Leu-Hyp-Trp-Dab-Trp'-mNle-mNle-Leu-Cys-Gly-((S)-4-(Fmoc-amino)-5-(tert-butoxy)-5-oxopentanoic acid)-[Modified resin 14A], deprotected; Glu joined through its gamma-carboxyl; 14A = ethylenediamine amide of the gamma-carboxyl of Glu N-(17-carboxyheptadecanoyl); cyclised ClAc-Cys) [Example 14123]
18 | 0.3 to 9.9 nM | {CH2CO}-Y[Pip]NP[DapMe]L[Hyp]W[Dab][Trp(1-CH2CO)][NMeNle][NMeNle]ECG[Pra] (thioether N-14 (inferred)) [INT-130AL]
19 | 0.3 to 9.9 nM | {CH2CO}-Y[Pip]NP[DapMe]L[Hyp]W[Dab][Trp(1-CH2CO)][NMeNle][NMeNle]LCG[Pra] (thioether N-14 (inferred)) [INT-130AK]
20 | 0.3 to 9.9 nM | {CH2CO}-Y[NMeA]NP[Dap]L[Hyp]W[Dab][Trp(1-CH2CO)][NMeNle][NMeNle]EC[Pra]-OH (thioether N-14; SMILES C#CC[C@H](NC(=O)[C@@H]1CSCC(=O)N[C@@H](Cc2ccc(O)cc2)C(=O)N(C)[C@@H](C)C(=O)N[C@@H](CC(N)=O)C(=O)N2CCC[C@H]2C(=O)N[C@@H](CN)C(=O)N[C@@H](CC(C)C)C(=O)N2C[C@H](O)C[C@H]2C(=O)N[C@@H](Cc2c[nH]c3ccccc23)C(=O)N[C@@H](CCN)C(=O)N[C@@H](Cc2cn(CC(=O)O)c3ccccc23)C(=O)N(C)[C@@H](CCCC)C(=O)N(C)[C@@H](CCCC)C(=O)N[C@@H](CCC(=O)O)C(=O)N1)C(=O)O) [INT-130AG]
21 | 0.3 to 9.9 nM | {CH2CO}-Y[Pip]NP[Dap]L[Hyp]W[Dab][Trp(1-CH2CO)][NMeNle][NMeNle]LCG[Pra] (thioether N-14 (inferred)) [INT-130AI]
22 | 0.3 to 9.9 nM | {CH2CO}-Y[NMeA]NP[Dap]L[Hyp]W[Dab][Trp(1-CH2CO)][NMeNle][NMeNle]LC[Pra]-OH (thioether N-14; SMILES C#CC[C@H](NC(=O)[C@@H]1CSCC(=O)N[C@@H](Cc2ccc(O)cc2)C(=O)N(C)[C@@H](C)C(=O)N[C@@H](CC(N)=O)C(=O)N2CCC[C@H]2C(=O)N[C@@H](CN)C(=O)N[C@@H](CC(C)C)C(=O)N2C[C@H](O)C[C@H]2C(=O)N[C@@H](Cc2c[nH]c3ccccc23)C(=O)N[C@@H](CCN)C(=O)N[C@@H](Cc2cn(CC(=O)O)c3ccccc23)C(=O)N(C)[C@@H](CCCC)C(=O)N(C)[C@@H](CCCC)C(=O)N[C@@H](CC(C)C)C(=O)N1)C(=O)O) [INT-130AF]
23 | 0.3 to 9.9 nM | {CH2CO}-Y[Pip]NP[Dap]L[Hyp]W[Dab][Trp(1-CH2CO)][NMeNle][NMeNle]ECG[Pra] (thioether N-14 (inferred)) [INT-130AJ]
24 | 0.3 to 9.9 nM | {CH2CO}-Y[NMeA]NP[Dap]L[Hyp]WS[Bzt][NMeNle][NMeNle]RCG[Pra] (thioether N-14) [INT-1300A]
25 | 0.3 to 9.9 nM | {CH2CO}-Y[NMeA]NP[Dap]L[Hyp]W[Dab][Trp(1-CH2CO)][NMeNle][NMeNle]DC[Pra]-OH (thioether N-14 (inferred)) [INT-130AH]
26 | 0.3 to 9.9 nM | {CH2CO}-Y[NMeA]NP[Dap]L[Hyp]WS[Bzt][NMeNle][NMeNle]RCG[Aha] (thioether N-14) [INT-1300B]
